Measured values published in IntAct's records for PubMed 23871486.

B1: Cytotoxic and regulatory T-cell molecule (Homo sapiens), O95727-1 (parent)
chain: MWWRVLSLLAWFPLQEASLTNHTETITVEEGQTLTLKCVTSLRKNSSLQWLTPSGFTIFLNEYPALKNSKYQLLHHSANQLSITVPNVTLQDEGVYKCLHYSDSVSTKEVKVIVLATPFKPILEASVIRKQNGEEHVVLMCSTMRSKPPPQITWLLGNSMEVSGGTLHEFETDGKKCNTTSTLIIHTYGKNSTVDCIIRHRGLQGRKLVAPFRFEDLVTDEETASDALERNSLSSQDPQQPTSTVSVTEDSSTSEIDKEEKEQTTQDPDLTTEANPQYLGLARKKSGILLLTLVSFLIFILFIIVQLFIMKLRKAHVIWKKENEVSEHTLESYRSRSNNEETSSEEKNGQSSHPMRCMNYITKLYSEAKTKRKENVQHSKLEEKHIQVPESIV
partner: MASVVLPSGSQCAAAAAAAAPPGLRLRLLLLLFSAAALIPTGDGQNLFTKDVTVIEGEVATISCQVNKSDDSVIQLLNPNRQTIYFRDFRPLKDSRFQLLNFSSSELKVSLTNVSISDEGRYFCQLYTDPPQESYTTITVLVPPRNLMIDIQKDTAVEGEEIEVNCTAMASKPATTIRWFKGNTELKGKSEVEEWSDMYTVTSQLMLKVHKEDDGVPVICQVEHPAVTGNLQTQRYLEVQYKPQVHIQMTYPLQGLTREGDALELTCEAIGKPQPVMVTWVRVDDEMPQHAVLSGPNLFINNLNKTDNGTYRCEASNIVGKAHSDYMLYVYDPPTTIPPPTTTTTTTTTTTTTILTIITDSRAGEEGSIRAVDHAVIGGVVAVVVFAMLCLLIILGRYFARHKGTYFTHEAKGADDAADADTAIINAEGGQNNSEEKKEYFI

Variants of: B1
Details: with cadm1_human CADM1, Q9BY67

Variant | effect of a mutation on the interaction
MWWRVLSLLAWFPLQEASLTNHTETITVEEGQTLTLKCVTSLRKNSSLQWLTPSGATIFLNEYPALKNSKYQLLHHSANQLSITVPNVTLQDEGVYKCLHYSDSVSTKEVKVIVLATPFKPILEASVIRKQNGEEHVVLMCSTMRSKPPPQITWLLGNSMEVSGGTLHEFETDGKKCNTTSTLIIHTYGKNSTVDCIIRHRGLQGRKLVAPFRFEDLVTDEETASDALERNSLSSQDPQQPTSTVSVTEDSSTSEIDKEEKEQTTQDPDLTTEANPQYLGLARKKSGILLLTLVSFLIFILFIIVQLFIMKLRKAHVIWKKENEVSEHTLESYRSRSNNEETSSEEKNGQSSHPMRCMNYITKLYSEAKTKRKENVQHSKLEEKHIQVPESIV [F56A] | decreasing interaction strength
MWWRVLSLLAWFPLQEASLTNHTETITVEEGQTLTLKCVTSLRKNSSLQWLTPSGFTIFLNEYPALANSKYQLLHHSANQLSITVPNVTLQDEGVYKCLHYSDSVSTKEVKVIVLATPFKPILEASVIRKQNGEEHVVLMCSTMRSKPPPQITWLLGNSMEVSGGTLHEFETDGKKCNTTSTLIIHTYGKNSTVDCIIRHRGLQGRKLVAPFRFEDLVTDEETASDALERNSLSSQDPQQPTSTVSVTEDSSTSEIDKEEKEQTTQDPDLTTEANPQYLGLARKKSGILLLTLVSFLIFILFIIVQLFIMKLRKAHVIWKKENEVSEHTLESYRSRSNNEETSSEEKNGQSSHPMRCMNYITKLYSEAKTKRKENVQHSKLEEKHIQVPESIV [K67A] | decreasing interaction strength
MWWRVLSLLAWFPLQEASLTNHTETITVEEGQTLTLKCVTSLRKNSSLQWLTPSGAAIFLNEYPALANSKYQLLHHSANQLSITVPNVTLQDEGVYKCLHASDSVSTKEVKVIVLATPFKPILEASVIRKQNGEEHVVLMCSTMRSKPPPQITWLLGNSMEVSGGTLHEFETDGKKCNTTSTLIIHTYGKNSTVDCIIRHRGLQGRKLVAPFRFEDLVTDEETASDALERNSLSSQDPQQPTSTVSVTEDSSTSEIDKEEKEQTTQDPDLTTEANPQYLGLARKKSGILLLTLVSFLIFILFIIVQLFIMKLRKAHVIWKKENEVSEHTLESYRSRSNNEETSSEEKNGQSSHPMRCMNYITKLYSEAKTKRKENVQHSKLEEKHIQVPESIV [F56A;T57A;K67A;Y101A] | decreasing interaction strength
MWWRVLSLLAWFPLQEASLTNHTETITVEEGQTLTLKCVTSLRKNSSLQWLTPSGFTIFLNEYPALKNSKYQLLHHSANQLSITVPNVTLQDEGVYKCLHASDSVSTKEVKVIVLATPFKPILEASVIRKQNGEEHVVLMCSTMRSKPPPQITWLLGNSMEVSGGTLHEFETDGKKCNTTSTLIIHTYGKNSTVDCIIRHRGLQGRKLVAPFRFEDLVTDEETASDALERNSLSSQDPQQPTSTVSVTEDSSTSEIDKEEKEQTTQDPDLTTEANPQYLGLARKKSGILLLTLVSFLIFILFIIVQLFIMKLRKAHVIWKKENEVSEHTLESYRSRSNNEETSSEEKNGQSSHPMRCMNYITKLYSEAKTKRKENVQHSKLEEKHIQVPESIV [Y101A] | decreasing interaction strength
MWWRVLSLLAWFPLQEASLTNHTETITVEEGQTLTLKCVTSLRKNSSLQWLTPSGFAIFLNEYPALKNSKYQLLHHSANQLSITVPNVTLQDEGVYKCLHYSDSVSTKEVKVIVLATPFKPILEASVIRKQNGEEHVVLMCSTMRSKPPPQITWLLGNSMEVSGGTLHEFETDGKKCNTTSTLIIHTYGKNSTVDCIIRHRGLQGRKLVAPFRFEDLVTDEETASDALERNSLSSQDPQQPTSTVSVTEDSSTSEIDKEEKEQTTQDPDLTTEANPQYLGLARKKSGILLLTLVSFLIFILFIIVQLFIMKLRKAHVIWKKENEVSEHTLESYRSRSNNEETSSEEKNGQSSHPMRCMNYITKLYSEAKTKRKENVQHSKLEEKHIQVPESIV [T57A] | decreasing interaction strength
